We go through two proteins from patent publication US20250283886.

Data set [1] addresses T1, FFMFFM{LYS(N3)} peptide-linker conjugate, oligo linker (Table 6 entry 6).
T1 chain: FFMFFMX

Data set [2] deals with KF peptide-linker conjugate, oligo linker (Table 6 entry 1).
Data set [3] addresses T2, KKMKKM{LYS(N3)} peptide-linker conjugate, PEG4 linker (Table 6 entry 4).
T2 chain: KKMKKMX

The target of data set [4] is T3, KKMKKM{LYS(N3)} peptide-linker conjugate, oligo linker (Table 6 entry 2).
T3 chain: KKMKKMX

Data set [5] has as its target T4, KKMKKM{LYS(N3)} peptide-linker conjugate, oligo-PEG linker (Table 6 entry 3).
T4 chain: KKMKKMX

Data set [6] concerns the target […]{LYS(N3)} peptide-linker conjugate, oligo linker (Table 6 entry 5).
The target in data set [7] is […]{LYS(N3)} peptide-linker conjugate, oligo linker (Table 6 entry 7).
The target in another data set is T5, FAAAWPDDDF1.
T5 chain: FAAAWPDDDF

The next data set addresses T6, FAAAYPDDDF1.
T6 chain: FAAAYPDDDF

For the next data set, the target named is T7, FYPLPWPDDDY{LYSN3}NH2.
T7 chain: FYPLPWPDDDYX

Another data set concerns the target T8, WAAAFPDDDF1.
T8 chain: WAAAFPDDDF

B1: rat aminopeptidase N (protein)
chain: KPWNQYRLPKTLIPDSYQVTLRPYLTPNEQGLYIFKGSSTVRFTCNETTNVIIIHSKKLNYTNKGNHRVALRALGDTPAPNIDTTELVERTEYLVVHLQGSLVKGHQYEMDSEFQGELADDLAGFYRSEYMEGGNKKVVATTQMQAADARKSFPCFDEPAMKASFNITLIHPNNLTALSNMLPKDSRTLQEDPSWNVTEFHPTPKMSTYLLAYIVSEFKYVEAVSPNRVQIRIWARPSAIDEGHGDYALQVTGPILNFFAQHYNTAYPLEKSDQIALPDFNAGAMENWGLVTYRESALVFDPQSSSISNKERVVTVIAHELAHQWFGNLVTVDWWNDLWLNEGFASYVEFLGADYAEPTWNLKDLIVLNDVYRVMAVDALASSHPLSSPANEVNTPAQISELFDSITYSKGASVLRMLSSFLTEDLFKKGLSSYLHTFQYSNTIYLDLWEHLQQAVDSQTAIKLPASVSTIMDRWILQMGFPVITVNTSTGEIYQEHFLLDPTSKPTRPSDFNYLWIVPIPYLKNGKEDHYWLETEKNQSAEFQTSSNEWLLLNINVTGYYQVNYDENNWRKIQNQLQTDLSVIPVINRAQIIHDSFNLASAGKLSITLPLSNTLFLASETEYMPWEAALSSLNYFKLMFDRSEVYGPMKRYLKKQVTPLFAYFKIKTNNWLDRPPTLMEQYNEINAISTACSSGLEECRDLVVGLYSQWMNNSDNNPIHPNLRSTVYCNAIAFGGEEEWNFAWEQFRKATLVNEADKLRSALACSNEVWILNRYLSYTLNPDYIRKQDATSTIVSIANNVVGQTLVWDFVRSNWKKLFEDYGGGSFSFANLIQGVTRRFSSEFELQQLEQFKEDNSATGFGSGTRALEQALEKTKANIKWVKENKDVVLKWFTENS
Turning to B1, the “Cleaved by Rat APN” value in data set [1] is “Yes”; in [2] it was “No”; in data set [3] it was “Yes”; in data set [4], “No”; in data set [5] it was “No”; in data set [6] it was “Yes”. The “Cleaved by Rat APN” value in data set [7] is recorded as “Yes”.

B2: Vibrio proteolyticus aminopeptidase (protein)
chain: MPPITQQATVTAWLPQVDASQITGTISSLESFTNRFYTTTSGAQASDWIASEWQALSASLPNASVKQVSHSGYNQKSVVMTITGSEAPDEWIVIGGHLDSTIGSHTNEQSVAPGADDDASGIAAVTEVIRVLSENNFQPKRSIAFMAYAAEEVGLRGSQDLANQYKSEGKNVVSALQLDMTNYKGSAQDVVFITDYTDSNFTQYLTQLMDEYLPSLTYGFDTCGYACSDHASWHNAGYPAAMPFESKFNDYNPRIHTTQDTLANSDPTGSHAKKFTQLGLAYAIEMGSATGDTPTPGNQ
As for B2, in the data set with FAAAWPDDDF1, the “HPLC Assay Conv; 600 uM Peptide, 8 uM enzyme, pH 8, RT/0.5 hr” value was 100%. In the data set with FAAAYPDDDF1, the “HPLC Assay Conv; 600 uM Peptide, 0.08 uM enzyme, RT/0.5 hr” value was determined as 5%; the “HPLC Assay Conv; 600 uM Peptide, 0.8 uM enzyme, RT/0.5 hr” value was determined as 50%; the “HPLC Assay Conv; 600 uM Peptide, 8 uM enzyme, RT/0.5 hr” value is recorded as 100%. Also, in the data set with FYPLPWPDDDY{LYSN3}NH2, the “HPLC Assay Conv; 200 uM Peptide, 8 uM enzyme, MOPS pH 5.0, RT/0.5 hr” value worked out at 100%; the “HPLC Assay Conv; 200 uM Peptide, 8 uM enzyme, MOPS pH 5.0, RT/1 hr” value is 100%; the “HPLC Assay Conv; 600 uM Peptide, 0.8 uM enzyme, pH 5.5, RT/0.5 hr” value amounted to 100%; the “HPLC Assay Conv; 600 uM Peptide, 0.8 uM enzyme, pH 6.5, RT/0.5 hr” value worked out at 100%. Further, in the data set with FYPLPWPDDDY{LYSN3}NH2, the “HPLC Assay Conv; 600 uM Peptide, 0.8 uM enzyme, pH 7.5, RT/0.5 hr” value came to 100%; the “HPLC Assay Conv; 600 uM Peptide, 0.8 uM enzyme, pH 8.5, RT/0.5 hr” value was 100%; the “HPLC Assay Conv; 1200 uM Peptide, 800 pM enzyme, pH 7.5, RT/0.5 hr” value was 2.70%; the “HPLC Assay Conv; 1200 uM Peptide, 800 pM enzyme, pH 8.5, RT/0.5 hr” value is listed as 6.80%. Moreover, in the data set with FYPLPWPDDDY{LYSN3}NH2, the “HPLC Assay Conv; 1200 uM Peptide, 0.008 uM enzyme, pH 5.5, RT/0.5 hr” value is listed as 1.40%; the “HPLC Assay Conv; 1200 uM Peptide, 0.008 uM enzyme, pH 6.5, RT/0.5 hr” value was found to be 56%; the “HPLC Assay Conv; 1200 uM Peptide, 0.008 uM enzyme, pH 7.5, RT/0.5 hr” value was determined as 100%; the “HPLC Assay Conv; 1200 uM Peptide, 0.008 uM enzyme, pH 8.5, RT/0.5 hr” value turned out to be 100%. Also, in the data set with FYPLPWPDDDY{LYSN3}NH2, the “HPLC Assay Conv; 1200 uM Peptide, 0.08 uM enzyme, pH 5.5, RT/0.5 hr” value amounted to 50%; the “HPLC Assay Conv; 1200 uM Peptide, 0.08 uM enzyme, pH 6.5, RT/0.5 hr” value was determined as 100%; the “HPLC Assay Conv; 1200 uM Peptide, 0.08 uM enzyme, pH 7.5, RT/0.5 hr” value is recorded as 100%; the “HPLC Assay Conv; 1200 uM Peptide, 0.08 uM enzyme, pH 8.5, RT/0.5 hr” value stood at 100%. In the data set with WAAAFPDDDF1, the “HPLC Assay Conv; 300 uM Peptide, 8 uM enzyme, 50/50 MOPS Mg buffer/RB1, RT/0.5 hr” value is 30%; the “HPLC Assay Conv; 300 uM Peptide, 8 uM enzyme, RB2 + Mg, RT/0.5 hr” value is 5%; the “HPLC Assay Conv; 300 uM Peptide, 8 uM enzyme, RB4, RT/0.5 hr” value was 100%; the “HPLC Assay Conv; 300 uM Peptide, 8 uM enzyme, pH 8, 60 mM KOAc, RT/0.5 hr” value was 70%. Further, in the data set with WAAAFPDDDF1, the “HPLC Assay Conv; 300 uM Peptide, 8 uM enzyme, pH 8, 60 mM KOAc, RT/2 hr” value came to 100%; the “HPLC Assay Conv; 300 uM Peptide, 8 uM enzyme, pH 8, 0.2% Tween20, RT/0.5 hr” value is 100%; the “HPLC Assay Conv; 300 uM Peptide, 8 uM enzyme, pH 8, RT/0.5 hr” value worked out at 100%; the “HPLC Assay Conv; 600 uM Peptide, 8 uM enzyme, pH 8, RT/0.5 hr” value was 100%.
